# Reference: article PMC10197177
# pKd: −log10 of the molar value.
# Columns and labels:
# Assay in all cases: ELONA
# Conditions in all cases: pH 7.4, room temperature, spike immobilized
# [1] = target: Spike protein, Alpha (SARS-CoV-2 (Alpha variant)) (UniProt P0DTC2)
# [2] = target: Spike protein, Beta (SARS-CoV-2 (Beta variant)) (UniProt P0DTC2)
# [3] = target: Spike protein, Delta (SARS-CoV-2 (Delta variant)) (UniProt P0DTC2)
# [4] = target: Spike protein, Omicron (SARS-CoV-2 (Omicron variant)) (UniProt P0DTC2)
sequence,measurement,setting,value
AATGGATCCACATCTACGAGCTCGAACGCCCGGAGGAGACGGGGGCAGGGCGTGTTCACTGCAGACTTGACGAAGCT [K1 (truncated working aptamer)],pKd,[1],10.47
same,pKd,[2],10.47
same,pKd,[3],10.43
same,pKd,[4],10.59
ATCTACGAATTCTCCGCCAAGATAGAGGGTGGGCCGCGGAGAATTCACTGC [M40 (truncated working aptamer)],pKd,[1],9.55
same,pKd,[2],9.56
same,pKd,[3],9.73
same,pKd,[4],9.78
